The values that follow are results of earlier work, collected in PMC9776232.

The target in this series is Amyloid beta (Homo sapiens) (UniProt P05067).
Chain of Amyloid beta (Homo sapiens) (P05067 672-711): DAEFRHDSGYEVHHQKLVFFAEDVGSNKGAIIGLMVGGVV

Chain of L-PGDS (P41222 23-190): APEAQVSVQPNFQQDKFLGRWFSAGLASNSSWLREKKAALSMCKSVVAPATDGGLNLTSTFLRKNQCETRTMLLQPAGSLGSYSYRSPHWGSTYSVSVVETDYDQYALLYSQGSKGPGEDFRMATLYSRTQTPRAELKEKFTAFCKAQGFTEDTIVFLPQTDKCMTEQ

By Kd is commonly meant the concentration at which binding is half-saturated. L-PGDS (from UniProt P41222): the Kd is 34 nM.
